Experimental data: the nanobody polyreactivity screen of Harvey et al. (2022)

Assay: yeast display, Sf9 membrane polyspecificity reagent, FACS + sequencing; frameworks hold sequencing errors
Outline: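 Nanobodies came from a synthetic yeast display library in Saccharomyces cerevisiae BJ5465, induced with galactose for 36–48 hours and stained for 1 hour at 4 °C with 10% biotinylated, detergent-solubilized Sf9 membrane reagent. Cells were enriched on streptavidin microbeads and then FACS-sorted, with low and high (top ~1%) gates set on anti-HA fluorescence for expression and streptavidin fluorescence for reagent binding. Each polyreactivity label reflects the gate a clone came from. Genes were amplified by colony PCR, sequenced by MiSeq 2 × 250 and filtered by CDR length.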

Sequence | polyreactivity (PSR sort gate)
QVQLVESGGGLVQAGGSLRLSCAASGSTIVGYTMGWYRQAPGKERELVAAISRGGGSTYYADSVKGRFTISRDNAKNTVYLQMNSLKPEDTAVYYCNAYTYNRYYWGQGTQVTVSS | high polyreactivity
QVQLVESGGGLVQAGGSLRLSCAASGRIFSLYAMGWYRQAPGKERELVAVITYRGGDSTYYADSVKGRFTISRDNAKNTVYLQMNSLKPEDTAVYYCAAGQPLYQRRHSSRTYYYWGQGTQVTVSS | high polyreactivity
QVQLVESGGGIVQAGGSLRLSCAASGSIFGGNALGWDRQAPGKERELVAAITWSGTSTYYADSVKGRFTISRDNAKNTVYLQMNSLKPEDTAVYYCNADYKSTDFRYSGSRNYWGQGTQVTVSS | low polyreactivity
QVQLVESGGGLVQAGGSLRLSCAASGSIFGRNAMGWYRQAPGKERELVAAIRTRGGSTYYADSVKGRFTNSRDIAKNSVYLQMNSLKPEDTAVYYCAAPGGGKEVDYWGQGTQVTVSS | low polyreactivity
QVQLVESGGGLVQAGGSLRLSCAASGSISGINAMGWYRQAPGKERELVAAISRRAGSTYYADSVKGRFTISRDNAKNTVYLQMNSLKPEDTAVYYCAAENFYPYTYYASDYWGQGTQVTVSS | high polyreactivity
QVQLVESGGGLFQAGGSLRLRCAASGFIFGVNAMGWYRQAPGKERELVAAITSTGGRTYYADSVKGRFTISRDNAKNTVYLQMNSLKPVDTAVYFCARYQTGGYGYWGQGTQVTVSS | high polyreactivity
QLQHVESGGGLVQAGGSLRLSCAASGRIFGVNAQGWYRQAPGKERELVAAITSGGSTYYADSVKGRFTISRDNAKNTVYLQMKSLKPEDTAVYYGAARYYYLLWYTLPTKYDYWGQGTQVTVSS | high polyreactivity
QGQLVESGGGLVQAGGSLRLSCAASGSTIPVNAMAWYRQAPGKERELVAAITWGDGSTSYADSVKGRFTISRDNAKNTVYLQMNSLKPEDTAVYYCNKDFIYGYDAASYRPEYDYWGQGTQVTVSS | low polyreactivity
QVQLVESGGGLVQAGGSLRLICAASGRIFAHYARGWYRQAPGKERELVAAISWRGGRTYYADSVKGRFTISRDNAKNTVYLQMNSLKPEDTAVYYCNAVGYSQGYDYWGQGTQVTVSS | high polyreactivity
QVQLVESGGGLVQAGGSLRLRCAASGITFSGNAMGWYRQAPRKERELVAAITFSGGRTYYADSVKGSFTISRDNAKNTVYLQMNSLKPEDSAVYYCAAETPRGRWLGDYWGQGTQVTVSS | low polyreactivity
QVQLVESGGGLVQAGGSLRLSCAASGSIFGVNAMGWYRQAPGKERELVASITGGDSTNYADSVKGRFTISRDNAKNTVYLQMNSLKPEDTAGYYCAKDHYYRYEEGDYWGQGTQVTVSS | low polyreactivity
EEELVESGGGLVQAGGSLRLSCAASGRIFGPYAMGWYRQAPGKEREFVAAISGGGGNTYYADSVKGRFTISRDNAKNTVNLQMNSLKPEDTAVYYCAAQHVPRWWWYAPVKYDYWGQGTQVTVSS | low polyreactivity
QVQLVESAGGLVQAGGSLRLSCAASGYIFYFYAMGWYRQAPGKERELVAAITSVGSTKYADSVKGRFTISRDNAKNTVYLQMNSLKPEDTAVYYCAARSWSGYGLYNYWGHGTQVTVSS | high polyreactivity
QVQLVESGGGLVQAGGSLRLSCAASGRIFGSYAMGWYRQAPGKERELVAAINWRGGSTFYADSVKGRFTISRDNAKNTVYLQMNSLKPEDTAVYSCARRGYRQSGDYWGQGTQVTVSS | low polyreactivity
QVHLVESGGGLVQAGGSLRLSCAASGSTFGLNAMGWYRQAPGKERELVAAITRSDITNYADSVKGRFTISRDNAKNTVYLQMNSLKPEDTAVYYCNKTPDRHRRYFGYGYWGQGTQVTVSS | low polyreactivity
QVQLVESGGGLVQAGGSLRLSCAASGFIIAQYAMGWYRQAPGKERELVAGITSTGSTNYADSVKGRFTISRDNAKNTVYLQMNSLKPEDTAVYYCNTDYITASAVFDYDYWGQDTQVTVSS | low polyreactivity
QVQLVESGGGLVQAGGSLRLSCAASGSTFRTYAMGWYRQAPGKERELVAAIRSRGGSTYYADSVKGRFTISRDNAKNTVYLLMNSLKPEDTAVYYCNAVPRWSYVDEDSWGQGTQVTVSS | high polyreactivity
QVQLVESGGGLVQAGGSLRLSCAASGITLGTNAMGWYRQAPGKERELVAAIRRSGGSTYYADSVKGRFTISRDNAKNTVYLQMNSLKPEDTAVYYCAAVVSVNMYWGQGTQVTVSS | low polyreactivity
QVQLVESVGGLVQAGGRLRLSCAASGSIFWFNAMGWYRQAPGKEREFVASISRSGGTTYYADSVKGRFTISRDNAKNTVYLQMNSLKPEDTAVYYCNARAYGNGLGTGYFGNHRYDYWGQGTQVTVSS | low polyreactivity
QVQLVESGGVLVQAGGSLRLSCAASGRIFGRYAMGWYRPAPGKERELVAAISWSGDSTYYADSVKGRFTISRDNSTNTVYLHMNSLKPEDTAVYYCATGGRGGRRYEYWGQGTQVTVSS | low polyreactivity
QVQLVESGGGLVQAGGSLRLSCAASGFIFGRYTMGWYSQAPGKERELVAAISSRGGSTYYADSVKGRFTISRDNAKNTVYLQMNSLKPEDTAVYYCAADEIYGYDYWGQGTQVTVSS | high polyreactivity

Sequence | polyreactivity (PSR sort gate)
QVQLVESGGGLVQAGGSLRLSCAASGLIFATYAMGWSRQAPGKERELVAAISYRGSRTYYADSVKGRFTISRDNAMTTVYLQMNILKPEDTGVYYCAAVYRTYGIGPNNYWGQGTQVTVSS | high polyreactivity
QVQLVESGGGLVQAGGSLRLICAASGRIFRGNAMGWYRQAPGKERELVATISSDGSTNYADSVKGRFTISRDNAKNSVYLQMNSLKPEDTAVYYCAKGFYTITPHGMDYWGQGTQVTVSS | low polyreactivity
QVQLVESGGGLVQAGGSLRLSCAASGRTLYGNTMGWYRQAPGKERELVAAITNRGGSTTYADSVKGRFTISRDNAKNTVYLQMNSLKPEDTAVYYCNKDVTPLHYDSWGQGTQVTVSS | high polyreactivity
QVQLVESGGGLVQAGGSLRLSCAASGFIFGYYAMGWYRQAPGKERELVARITSSGGSTYYADSVKGRFTISRDNAKNTVYLQMNSLKPEDTAVYYCAKSPRAPRYIPYGYWGQGTQVTVSS | high polyreactivity
QVQLVESGGGLVQAGGSLRLSCAASGFTFGRYAMGWYRQAPGKERELVATISRSGGRTYYADSVKGRFTISRDIAKKTVYLQMNSLKPEDTAVYYCAADTRNYPRYDYWGQGTQVTVSS | high polyreactivity
QVQLVESGGGLVQAGGSLRLSCAASGSTFDTYAMGWYRQAPGKERELVAAINSGGGTNYADSVKGRFTISRDNAKNTVYLQMNSLKPEDTAVYYCATDSRRDAGGGDFDYWGQGTQVTVSS | low polyreactivity
QLQLVESGGGLVQAGGSLRLSCAASGLTFSYYAMGWYRQAPGKETELVSAISRGGTTNYADSVKGRFTISRDNAKNTVYLQMNSLKPEDTAVYYCAASYFRRGFYSIYEYDYWGQGTQVTVSS | low polyreactivity
QVQLVESGGGLVQAGGSLRLSCAASGSIFIGYAMGWYRQAPGKERELVAAISQSGGRTYYADSVKGRFTISRDNAKNTVYLQMNSLKPEDTAVYYCNKVTKSYFIYDYWGQGTQVTVSS | high polyreactivity
QVQLVESGGGLVQAGGSLRLSCAASGLIFKVYAMGWYRQAPGKERELVAAITYSGGSTDYADSVKGRFTISRDNAKNTVYLQMNSLKPEDTAVYYCNVEKVGHVNSYGYDYWGQGTQVTVSS | low polyreactivity
QVQGVESGGGLVQAGGSLRLSCAAAGFTFGYYAMGWYRQAPGTERELVAGISWGGTRTYYADSVKGRFTISRDNAKNTVYLQLNSLKPEDTAVYYCAAESILGYDYWGQGTQVTVSS | high polyreactivity
QVQLVESGGGLVQAGGSLRLSCAASGSTFVPKDMGWNRQAPGKERELVAAISYSGGSTYYADSVKGRFTISRDNAKNTVYLQLNSLKPEDTAVDYCNAEGWYYLTEYGYWGQGTQVTVSS | low polyreactivity
QVQLVESGGGLVQAGGSLRLSCAASGLIFGVNAMGWYRQAPGKERELVAAISWSGSSTNYADSVKGRFTISRDNAKNTVYLQMNSLKPEDTAVYYCATDQGYRYLKIYVYGDAFDYWGQGTQVTVSS | low polyreactivity
QVQHVESGGGLVQAGGSLRLSCAASGIIFGHYDMGWYRQAPGKERELVAAITFTGDSTYYADSVKGRFTISRDNAKITVYLQMNSLKPEDTAVYFCAADTPVPWGSWGYDYWGQGTQVTVSS | low polyreactivity
QVQLVESGGGLVQAGGSLRLSWAASGFIFDPNAMGWYRQAPGKERDLVAAISSSGGRTYYADSVKGRFTISRDNAKNTVYLQMNSLKPEDTAVYYCATDTSVQGQEYDYWGQGTQVTVSS | low polyreactivity
QVQLVESGGGLVQAGGSLRLSCAASGRIFGVYAMGWYRQAPGKERELVAAITARGGSTYYADSVKGRFTISRDNAKNTVYLQMNSLKPEDTAVYYCATRLYKRTRTITYGYWGQGTQVTVSS | high polyreactivity
QVQLVDSGGGLDQAGGSLRLSCAASGLTFAYNTMGWYRQAPGKERELVADISRSAGSTYYADSVKVRFTISRDNAKNTVFLQMNSLKPDDTAVYYCNAAPYYVLYLLWSSNTYDYWGQGTQVTVSS | high polyreactivity
QVQLVESGGGLVQAGGTLRLSCAASGSTSSNNAMGWYRQAPGKARELVADISTNGDSTSYADSVKGRFTISRDNAKNPVYLLMNSLKPEDTAVYYSAASTYVTYWEYDYWGQGTQVTVSS | low polyreactivity
QVQLVESGGGLVQAGGSLRLTCAASGSTFGWYAMGWYRQAPGKERELVAAIRSNGGSTYYADSVKGRFTISRDNAKNTVYLHMNSLKPEDTAVYYCAGRGSPSKHHWYDYWGQGTQVNVSS | low polyreactivity
QVQLVESGGGLVQAGGSLRLSCAASGFTSQYYAMGWYRQAPGKERELVAAITLRDGSTYYADSVKGRFTISRDNAKNTVYLQMNSMKPEDTAVYYCNTDATSDPYGFGYWGQGTQVTVSS | low polyreactivity
QVQLVESGGGLVQAGGSLRLSCAASGSIFYYNAMGWYSQAPGKERELVAAITGSGGSTYYADSVKGRFTISRDNAKNTVYLQMNSLKPEDTAVYYCAADYSLYGWWFRNDYWGQGTQVTVSS | low polyreactivity
